Results published in article PMC2631437 (Molecular microbiology, 2008).
Positions count from the first letter of the chain named.

How the values were obtained:
Assay in all cases: EMSA
[1] = target: T1, MotA S80R (bacteriophage T4, UniProt P22915 1-211, S80R)
T1 sequence: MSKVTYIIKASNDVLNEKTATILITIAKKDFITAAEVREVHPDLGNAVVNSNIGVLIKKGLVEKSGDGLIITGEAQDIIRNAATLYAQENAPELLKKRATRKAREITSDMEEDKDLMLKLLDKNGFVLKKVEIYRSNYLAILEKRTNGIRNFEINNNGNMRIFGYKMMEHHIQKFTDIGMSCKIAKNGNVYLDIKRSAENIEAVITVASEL

[2] = target: T2, MotA K28E (bacteriophage T4, UniProt P22915 1-211, K28E)
T2 sequence: T1 sequence with K28E, R80S

[3] = target: T3, MotA K59E (bacteriophage T4, UniProt P22915 1-211, K59E)
T3 sequence: T1 sequence with K59E, R80S

[4] = target: T4, MotA Q76R (bacteriophage T4, UniProt P22915 1-211, Q76R)
T4 sequence: T1 sequence with Q76R, R80S

[5] = target: T5, MotA K3E (bacteriophage T4, UniProt P22915 1-211, K3E)
T5 sequence: T1 sequence with K3E, R80S

[6] = target: T6, MotA D43K (bacteriophage T4, UniProt P22915 1-211, D43K)
T6 sequence: T1 sequence with D43K, R80S

B1: 21 bp MotA box DNA (dsDNA)
DNA 1: GAATTATTTGCTTTAGATTAC
DNA 2: GTAATCTAAAGCAAATAATTC
Which results are given for B1?
Kd [1]: ~600 nM; Kd [2]: ~500 nM; Kd [3]: ~500 nM; Kd [4]: ~600 nM; Kd [5]: ~500 nM; Kd [6]: ~500 nM
